Measured values: article PMC10397247

Key:
Experiment in all cases: two-hybrid library CCNG1;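 note: natural log of median RNA to DNA barcode read ratio; higher means stronger binding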
[1] = target: T1, O11-bA
T1 chain: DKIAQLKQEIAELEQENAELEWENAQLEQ

[2] = target: T2, O12-bA
T2 chain: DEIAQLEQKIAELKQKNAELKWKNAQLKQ

[3] = target: T3, O13-bA
T3 chain: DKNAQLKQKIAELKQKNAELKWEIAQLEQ

[4] = target: T4, O14-bA
T4 chain: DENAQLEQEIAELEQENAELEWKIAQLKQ

[5] = target: T5, O15-bA
T5 chain: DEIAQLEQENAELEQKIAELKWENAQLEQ

[6] = target: T6, O16-bA
T6 chain: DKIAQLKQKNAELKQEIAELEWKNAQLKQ

[7] = target: T7, O2-bA
T7 chain: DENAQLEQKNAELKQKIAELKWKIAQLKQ

[8] = target: T8, O3-bA
T8 chain: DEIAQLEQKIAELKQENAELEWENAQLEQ

[9] = target: T9, O4-bA
T9 chain: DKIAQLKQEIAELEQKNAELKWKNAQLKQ

[10] = target: T10, O5-bA
T10 chain: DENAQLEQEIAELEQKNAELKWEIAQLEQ

[11] = target: T11, O6-bA
T11 chain: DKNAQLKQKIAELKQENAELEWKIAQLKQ

[12] = target: T12, O7-bA
T12 chain: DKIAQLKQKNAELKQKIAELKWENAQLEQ

[13] = target: T13, O8-bA
T13 chain: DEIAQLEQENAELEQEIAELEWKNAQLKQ

[14] = target: T14, O9-bA
T14 chain: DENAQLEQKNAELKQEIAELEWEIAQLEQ

[15] = target: T15, 4H2143-bN
T15 chain: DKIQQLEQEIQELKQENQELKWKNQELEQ

[16] = target: T16, 4H2162-bN
T16 chain: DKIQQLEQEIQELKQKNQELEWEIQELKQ

[17] = target: T17, 4H2223-bN
T17 chain: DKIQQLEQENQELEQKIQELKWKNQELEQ

[18] = target: T18, 4H2233-bN
T18 chain: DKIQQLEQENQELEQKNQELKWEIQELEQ

[19] = target: T19, 4H2253-bN
T19 chain: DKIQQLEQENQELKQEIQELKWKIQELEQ

[20] = target: T20, 4H235-bN
T20 chain: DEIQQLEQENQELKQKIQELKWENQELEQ

[21] = target: T21, 4H2438-bN
T21 chain: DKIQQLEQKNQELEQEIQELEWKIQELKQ

[22] = target: T22, 4H2444-bN
T22 chain: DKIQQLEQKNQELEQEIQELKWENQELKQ

[23] = target: T23, 4H2473-bN
T23 chain: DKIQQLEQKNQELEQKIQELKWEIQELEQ

[24] = target: T24, 4H2503-bN
T24 chain: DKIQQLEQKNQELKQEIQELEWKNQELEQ

[25] = target: T25, 4H2518-bN
T25 chain: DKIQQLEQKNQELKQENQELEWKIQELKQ

[26] = target: T26, 4H2585-bN
T26 chain: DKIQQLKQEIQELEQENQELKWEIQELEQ

[27] = target: T27, 4H2588-bN
T27 chain: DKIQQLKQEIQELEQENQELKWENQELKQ

[28] = target: T28, 4H264-bN
T28 chain: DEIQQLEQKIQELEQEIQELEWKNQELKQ

[29] = target: T29, 4H2692-bN
T29 chain: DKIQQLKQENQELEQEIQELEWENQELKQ

[30] = target: T30, 4H2717-bN
T30 chain: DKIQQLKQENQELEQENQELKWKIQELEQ

[31] = target: T31, 4H2760-bN
T31 chain: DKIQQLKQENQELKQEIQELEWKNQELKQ

[32] = target: T32, 4H2839-bN
T32 chain: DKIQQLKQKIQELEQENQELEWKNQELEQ

[33] = target: T33, 4H2859-bN
T33 chain: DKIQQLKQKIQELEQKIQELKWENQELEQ

[34] = target: T34, 4H2915-bN
T34 chain: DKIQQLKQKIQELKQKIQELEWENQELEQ

[35] = target: T35, 4H2931-bN
T35 chain: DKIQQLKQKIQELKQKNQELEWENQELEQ

[36] = target: T36, 4H3041-bN
T36 chain: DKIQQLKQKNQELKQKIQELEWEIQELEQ

[37] = target: T37, 4H3057-bN
T37 chain: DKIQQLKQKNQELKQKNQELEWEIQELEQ

[38] = target: T38, 4H319-bN
T38 chain: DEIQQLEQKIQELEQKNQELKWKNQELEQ

[39] = target: T39, 4H3277-bN
T39 chain: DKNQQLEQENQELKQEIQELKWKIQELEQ

[40] = target: T40, 4H3297-bN
T40 chain: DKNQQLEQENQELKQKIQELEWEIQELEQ

[41] = target: T41, 4H3354-bN
T41 chain: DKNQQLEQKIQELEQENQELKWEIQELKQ

[42] = target: T42, 4H3364-bN
T42 chain: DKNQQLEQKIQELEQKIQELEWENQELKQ

[43] = target: T43, 4H3381-bN
T43 chain: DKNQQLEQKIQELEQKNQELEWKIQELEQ

[44] = target: T44, 4H348-bN
T44 chain: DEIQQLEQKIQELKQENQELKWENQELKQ

[45] = target: T45, 4H349-bN
T45 chain: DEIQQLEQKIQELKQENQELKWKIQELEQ

[46] = target: T46, 4H40-bN
T46 chain: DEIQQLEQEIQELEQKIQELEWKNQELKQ

[47] = target: T47, 4H477-bN
T47 chain: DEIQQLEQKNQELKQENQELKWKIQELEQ

[48] = target: T48, 4H492-bN
T48 chain: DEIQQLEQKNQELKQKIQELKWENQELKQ

[49] = target: T49, 4H56-bN
T49 chain: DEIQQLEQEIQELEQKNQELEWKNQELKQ

[50] = target: T50, 4H570-bN
T50 chain: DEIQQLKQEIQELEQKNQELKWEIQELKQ

[51] = target: T51, 4H730-bN
T51 chain: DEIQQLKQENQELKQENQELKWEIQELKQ

[52] = target: T52, 4H741-bN
T52 chain: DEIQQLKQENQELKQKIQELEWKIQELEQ

[53] = target: T53, 4H754-bA
T53 chain: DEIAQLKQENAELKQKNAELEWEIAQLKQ

[54] = target: T54, 4H796-bN
T54 chain: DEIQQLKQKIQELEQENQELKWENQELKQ

[55] = target: T55, 4H932-bN
T55 chain: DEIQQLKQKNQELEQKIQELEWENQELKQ

[56] = target: T56, 4H949-bN
T56 chain: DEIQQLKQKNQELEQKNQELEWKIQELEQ

[57] = target: T57, O11-bN
T57 chain: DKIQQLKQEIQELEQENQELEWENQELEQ

[58] = target: T58, P1A
T58 chain: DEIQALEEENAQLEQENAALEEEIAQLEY

[59] = target: T59, P2A
T59 chain: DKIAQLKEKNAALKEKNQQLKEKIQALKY

[60] = target: T60, P3A
T60 chain: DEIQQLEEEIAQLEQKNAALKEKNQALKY

[61] = target: T61, P4A
T61 chain: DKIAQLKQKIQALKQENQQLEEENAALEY

[62] = target: T62, P5A
T62 chain: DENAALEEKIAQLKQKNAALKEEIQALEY

[63] = target: T63, P6A
T63 chain: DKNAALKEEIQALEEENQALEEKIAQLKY

[64] = target: T64, P7A
T64 chain: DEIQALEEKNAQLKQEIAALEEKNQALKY

[65] = target: T65, P8A
T65 chain: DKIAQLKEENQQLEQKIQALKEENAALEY

[66] = target: T66, P9A
T66 chain: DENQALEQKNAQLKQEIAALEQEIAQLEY

DKIAQLKQEIAELEQENAELEWENAQLEQ [O11-bA]
interaction score [1]: -0.526 | interaction score [2]: 2.25 | interaction score [3]: -1.12 | interaction score [4]: -0.951 | interaction score [5]: -0.971 | interaction score [6]: -0.988 | interaction score [7]: -0.637 | interaction score [8]: -0.525 | interaction score [9]: 2.16 | interaction score [10]: -0.78 | interaction score [11]: -0.9 | interaction score [12]: -0.686 | interaction score [13]: -1.31 | interaction score [14]: -0.659

DKIQQLEQEIQELKQENQELKWKNQELEQ [4H2143-bN]
interaction score [15]: 0.45 | interaction score [16]: 0.354 | interaction score [17]: -0.138 | interaction score [18]: -1.37 | interaction score [19]: 0.598 | interaction score [20]: 0.188 | interaction score [21]: 0.267 | interaction score [22]: -1.29 | interaction score [23]: -0.596 | interaction score [24]: -0.374 | interaction score [25]: -0.0822 | interaction score [26]: -1.01 | interaction score [27]: -0.413 | interaction score [28]: -0.0625 | interaction score [29]: -0.295 | interaction score [30]: 0.125 | interaction score [31]: -0.843 | interaction score [32]: -0.0339 | interaction score [33]: -0.319 | interaction score [34]: 0.491 | interaction score [35]: -0.53 | interaction score [36]: 0.217 | interaction score [37]: -0.303 | interaction score [38]: -1.38 | interaction score [39]: -0.382 | interaction score [40]: -0.664 | interaction score [41]: -2.78 | interaction score [42]: -0.973 | interaction score [43]: -0.161 | interaction score [44]: 0.129 | interaction score [45]: 0.196 | interaction score [46]: 0.442 | interaction score [47]: -0.266 | interaction score [48]: -0.438 | interaction score [49]: -0.695 | interaction score [50]: -0.424 | interaction score [51]: 0.137 | interaction score [52]: -0.465 | interaction score [53]: 0.173 | interaction score [54]: -0.462 | interaction score [55]: 0.299 | interaction score [56]: -0.46 | interaction score [57]: -1.88

DEIAQLEQKIAELKQKNAELKWKNAQLKQ [O12-bA]
interaction score [2]: -1.51 | interaction score [3]: -0.478 | interaction score [4]: -0.435 | interaction score [5]: -0.225 | interaction score [6]: -0.73 | interaction score [7]: -0.795 | interaction score [8]: 1.31 | interaction score [9]: 1.27 | interaction score [10]: -0.511 | interaction score [11]: 0.643 | interaction score [12]: -0.372 | interaction score [13]: 0.0711 | interaction score [14]: 1.04

DEIQALEEENAQLEQENAALEEEIAQLEY [P1A]
interaction score [58]: -1.11 | interaction score [59]: 2.6 | interaction score [60]: -1.69 | interaction score [61]: -0.87 | interaction score [62]: -2.1 | interaction score [63]: -1.54 | interaction score [64]: -1.31 | interaction score [65]: -1 | interaction score [66]: -1.68
